Laboratory results reported in patent US20110171178A1 (CUREDM GROUP, published 2011).

T1: HIP receptor (EXTL3) (human, UniProt O43909 1-919)
T1 construct: whole, on cells; Endogenous protein of PANC-1 cells, seen by immunostaining and Western blot; also called receptor for Human ProIslet Peptide
T1 sequence (looked up): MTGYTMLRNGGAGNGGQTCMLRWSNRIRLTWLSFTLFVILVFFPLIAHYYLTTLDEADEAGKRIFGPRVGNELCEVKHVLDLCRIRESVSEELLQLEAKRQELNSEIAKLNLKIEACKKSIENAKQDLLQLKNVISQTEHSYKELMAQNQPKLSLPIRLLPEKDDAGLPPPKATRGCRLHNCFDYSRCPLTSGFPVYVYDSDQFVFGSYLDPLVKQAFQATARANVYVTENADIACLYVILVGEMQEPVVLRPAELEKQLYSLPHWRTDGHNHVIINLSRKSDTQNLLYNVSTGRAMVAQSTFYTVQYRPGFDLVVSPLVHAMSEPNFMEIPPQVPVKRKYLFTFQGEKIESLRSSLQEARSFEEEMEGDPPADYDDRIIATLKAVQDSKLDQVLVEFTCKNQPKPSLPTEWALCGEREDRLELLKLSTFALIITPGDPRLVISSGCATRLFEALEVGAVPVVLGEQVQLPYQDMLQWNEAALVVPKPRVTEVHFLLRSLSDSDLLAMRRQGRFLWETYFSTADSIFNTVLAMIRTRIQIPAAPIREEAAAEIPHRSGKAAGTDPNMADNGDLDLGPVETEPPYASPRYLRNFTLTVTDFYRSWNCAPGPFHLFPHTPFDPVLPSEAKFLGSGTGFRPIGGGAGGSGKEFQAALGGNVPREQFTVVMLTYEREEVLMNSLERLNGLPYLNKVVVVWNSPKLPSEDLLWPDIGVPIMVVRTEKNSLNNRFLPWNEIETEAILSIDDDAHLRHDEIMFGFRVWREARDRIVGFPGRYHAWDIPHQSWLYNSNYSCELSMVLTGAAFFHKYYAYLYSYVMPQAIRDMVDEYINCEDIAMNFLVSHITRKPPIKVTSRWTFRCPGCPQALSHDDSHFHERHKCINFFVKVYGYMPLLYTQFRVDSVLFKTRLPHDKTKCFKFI


Target: T1, HIP receptor (EXTL3)
Test: receptor immunostaining and trafficking in PANC-1 cells (indirect)
Protocol: The upper panels indicated by the Cy3 immunofluorescent staining of EXTL3 (red). In the lower panel of images the Cy3 immunostaining of EXTL3 has been overlaid with DAPI (blue) staining of the nuclei. Cells were grown in standard growth medium as a control and compared to cells grown serum-free medium (SFM) in the presence or absence of HIP. […] The cell borders are well-defined indicating surface expression of EXTL3 on the plasma membrane. The yellow arrows delineate the cell borders while the nuclei are shown in blue. The middle images are cells grown in SFM. EXTL3 is localized in the cytoplasm as indicated by cytoplasmic Cy3 staining. The green arrows show the lack of staining in the position of the nuclei. […] In the lower image of cells grown in SFM and HIP, the blue arrows indicate the position of the nuclei. In the lower image there is an overlap of EXTL3-Cy3 staining and nuclear DAPI staining that corroborates the nuclear localization of EXTL3 (blue arrows). Scale bar=20 μm in all images.

Row | binding result | Binder
1 | binds | IGLHDPTQGTEPNG [HIP2 (Human proIslet Peptide, Ile-Gly-Leu-His-Asp-Pro-Thr-Gln-Gly-Thr-Glu-Pro-Asn-Gly)]
2 | binds | Ac-IGLHDPTQGTEPNG-NH2 (also called Optimized HIP2B) [HIP2Blocked (Ac-Ile-Gly-Leu-His-Asp-Pro-Thr-Gln-Gly-Thr-Glu-Pro-Asn-Gly-NH2)]
